# Reference: publication PMC9637222 (Nature Communications, 2022)
# T1: InvF (tag-free, purified) (S. Typhimurium, UniProt P69343 1-216)
# T1 sequence: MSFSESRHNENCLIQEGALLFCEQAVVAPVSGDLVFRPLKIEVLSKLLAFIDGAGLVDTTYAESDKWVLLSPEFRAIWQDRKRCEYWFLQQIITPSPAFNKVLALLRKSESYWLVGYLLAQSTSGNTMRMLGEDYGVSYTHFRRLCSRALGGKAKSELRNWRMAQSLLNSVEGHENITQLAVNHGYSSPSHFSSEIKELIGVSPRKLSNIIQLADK
# B1: SicA (tag-free, purified) (natural protein)
# chain: MDYQNNVSEERVAEMIWDAVSEGATLKDVHGIPQDMMDGLYAHAYEFYNQGRLDEAETFFRFLCIYDFYNPDYTMGLAAVCQLKKQFQKACDLYAVAFTLLKNDYRPVFFTGQCQLLMRKAAKARQCFELVNERTEDESLRAKALVYLEALKTAETEQHSEQEKE
# notes: also called wild-type SicA
# Molecular target: T1, InvF (tag-free, purified)
# Experiment: ITC
# Details: both partners purified
binder,measurement,value
B1,binding result,binds
